Among the data in article PMC11557686 are ratio to parent values, retold here.

Common to all, as to assay: NanoBiT
Conditions in all cases: six technical replicates in each of three independent biological replicates; parent: est. 1.0; read off a plot

Assay [1] has as its target SmBiT-SEC24A (UniProt O95486).
The target of assay [2] is SmBiT-SEC24C (UniProt P53992).
In assay [3] the target is LgBiT-SURF4 (UniProt O15260).

UniProt P53992, sequence (P53992 whole entry): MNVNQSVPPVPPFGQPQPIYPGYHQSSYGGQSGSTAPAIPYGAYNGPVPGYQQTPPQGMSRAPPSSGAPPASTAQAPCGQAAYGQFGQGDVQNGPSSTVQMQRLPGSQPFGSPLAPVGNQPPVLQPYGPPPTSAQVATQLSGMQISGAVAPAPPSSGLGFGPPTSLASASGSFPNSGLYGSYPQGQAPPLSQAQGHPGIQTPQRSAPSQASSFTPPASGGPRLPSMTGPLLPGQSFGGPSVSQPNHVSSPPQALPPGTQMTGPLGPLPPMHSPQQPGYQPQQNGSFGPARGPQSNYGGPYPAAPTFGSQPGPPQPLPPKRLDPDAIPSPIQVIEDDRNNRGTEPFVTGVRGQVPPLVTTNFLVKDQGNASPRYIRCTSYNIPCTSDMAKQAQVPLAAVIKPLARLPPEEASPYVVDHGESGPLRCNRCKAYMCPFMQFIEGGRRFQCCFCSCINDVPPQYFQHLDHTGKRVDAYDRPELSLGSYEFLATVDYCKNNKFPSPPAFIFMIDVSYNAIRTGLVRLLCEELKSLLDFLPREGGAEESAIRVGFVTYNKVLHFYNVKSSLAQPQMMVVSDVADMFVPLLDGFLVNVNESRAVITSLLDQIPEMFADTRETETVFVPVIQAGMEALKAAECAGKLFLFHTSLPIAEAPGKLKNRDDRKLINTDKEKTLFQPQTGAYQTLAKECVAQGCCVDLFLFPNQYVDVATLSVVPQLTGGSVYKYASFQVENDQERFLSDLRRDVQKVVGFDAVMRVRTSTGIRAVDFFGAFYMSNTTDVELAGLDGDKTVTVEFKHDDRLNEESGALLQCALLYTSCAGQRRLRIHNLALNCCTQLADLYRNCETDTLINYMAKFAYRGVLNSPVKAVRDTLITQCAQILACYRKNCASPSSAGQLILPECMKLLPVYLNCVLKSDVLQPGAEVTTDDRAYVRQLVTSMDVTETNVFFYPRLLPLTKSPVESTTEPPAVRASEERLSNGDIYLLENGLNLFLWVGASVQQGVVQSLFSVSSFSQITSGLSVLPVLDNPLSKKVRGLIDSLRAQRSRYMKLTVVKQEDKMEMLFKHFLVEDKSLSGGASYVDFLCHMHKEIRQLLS

As for LgBiT-SURF4 (from UniProt O15260) DE, the ratio to parent in assay [1] worked out at 0.9; in assay [2] it was 0.69.

Consider LgBiT-SURF4 (from UniProt O15260) EW, for which the ratio to parent in assay [1] came to 0.85; in assay [2] it was 0.78.

Turning to “LgBiT-SURF4 (from UniProt O15260) Phe loop”, the ratio to parent in assay [1] stood at 0.43; in assay [2] it was 0.82.

For the substance “SmBiT-SEC24A (from UniProt O95486) D-site”, the ratio to parent in assay [3] amounted to 0.79.
